Three substances from patent US12152088B2, “Co-assembly peptides, nanostructures, and methods of making and using the same” (University of Florida Research Foundation, Incorporated, priority 2016, dated 2024) can be followed below.

Holding throughout (assay type): physicochemical
Data set [1] can be described thus: Circular dichroism (secondary structure). The following applies: peptide incubated alone; CD maxima at 220 nm, minima at 200 nm. How it is done: Circular Dichroism. Circular Dichroism was performed on an AVIV 202 spectrometer. Peptides were prepared in 1× PBS at 500 μM, unless stated otherwise. Samples were run 3 times, averaged, and converted to mean residue ellipticity. All data reported was for dynode values <500 V.
For orientation: CD spectra are sensitive to the conformation of chiral molecules.

Data set [2] can be described thus: Macroscopic hydrogel formation. The following applies: aqueous buffered solutions of 12 mM. How it is done:
Macroscopic Hydrogel Formation. A 12 mM stock solution of CATCH(−) was prepared by dissolving dry peptide in 1× PBS and adjusting the pH to ˜7.6 with ammonium bicarbonate (Fisher). A 12 mM stock solution of CATCH(+) was prepared by dissolving dry peptide in 1×PBS and adjusting the pH to ˜7.2 with hydrochloric acid (0.5 N Fisher). CATCH peptide stock solutions were combined at a 1:1 (v/v) ratio in a 0.2 mL glass vial (Thermo), and the vial was gently swirled for 2 min until the hydrogel formed. The hydrogel was stained with red food coloring to aid visualization. Hydrogel images were recorded using a digital still camera.

Data set [3] in a line: Nanofiber sedimentation, fusion protein integration into CATCH nanofibers. The following applies: 500 μM CATCH(4/4) or CATCH(6/6) nanofibers. As for the experimental part:
Briefly, 500 μM CATCH(4/4) nanofiber sedimentation in the presence of (FIG. 42A) ThT, (FIG. 42B) CATCH(6-)GFP, (FIG. 42C) mCATCH(6-)GFP. […] 500 μM CATCH(6/6) nanofiber sedimentation in the presence of (FIG. 42E) ThT, (FIG. 42F) CATCH(6-) GFP, (FIG. 42G) mCATCH(6-)GFP.

A short description of data set [4]: Protein incorporation / retention in macroscopic hydrogels. As for the experimental part:
Protein Incorporation into Macroscopic Hydrogels. Hydrogels were prepared as described above, except 1.5 μM CATCH(−)GFP or mCATCH(−)GFP was added to the 12 mM CATCH(−) solution. Immediately after hydrogel formation, fluorescence was visualized by placing the glass vials on a SafeImager 2.0 transilluminator (Invitrogen) and recording images with a digital still camera. 800 μL of PBS was then carefully overlaid on top of hydrogel. The samples were then incubated for 48 hours to evaluate the protein incorporation within the hydrogel. At various time points, fluorescence in the buffer supernatant was visualized by placing the glass vials on a SafeImager 2.0 transilluminator (Invitrogen) and recording images with a digital still camera. At the end-point, buffer supernatant was carefully removed by decanting and fluorescence was visualized by placing the glass vials on a SafeImager 2.0 transilluminator (Invitrogen) and recording images with a digital still camera.

As to “Ac-EQEFEFEFEQE-Am (Ac-EQEFEFEFEQE-NH2) [CATCH(−)]”, the secondary structure result in data set [1] is recorded as “predominantly random coil”. The “flow behaviour / hydrogel formation” value in data set [2] is listed as “free flowing”. Besides, the “integration into CATCH nanofibers” value in data set [3] was “integrates into both CATCH(6/6) and CATCH(4/4) nanofibers”.
Turning to “Ac-QQKFKFKFKQQ-Am (Ac-QQKFKFKFKQQ-NH2) [CATCH(+)]”, the secondary structure result in data set [1] is “predominantly random coil”. In data set [2], the “flow behaviour / hydrogel formation” value was “free flowing”.
As for “CATCH(−)GFP: recombinant fusion of CATCH(−) and superfolder green fluorescent protein (GFP)”, the “hydrogel fluorescence after incubation” value in data set [4] (CATCH hydrogels under volumetric excess of 1× PBS for 48 h) is reported as “retained their fluorescence”. Also, the “GFP in the buffer layer over hydrogels” value in data set [4] (excess buffer, up to 48 h) was “no GFP was detected”.
